Measured values taken from patent US20250026827A1 (Alector, published 2025).

T1: mouse SIRPα on cells (mouse, UniProt P97797 32-513)
T1 construct: whole, on cells
T1 sequence (looked up): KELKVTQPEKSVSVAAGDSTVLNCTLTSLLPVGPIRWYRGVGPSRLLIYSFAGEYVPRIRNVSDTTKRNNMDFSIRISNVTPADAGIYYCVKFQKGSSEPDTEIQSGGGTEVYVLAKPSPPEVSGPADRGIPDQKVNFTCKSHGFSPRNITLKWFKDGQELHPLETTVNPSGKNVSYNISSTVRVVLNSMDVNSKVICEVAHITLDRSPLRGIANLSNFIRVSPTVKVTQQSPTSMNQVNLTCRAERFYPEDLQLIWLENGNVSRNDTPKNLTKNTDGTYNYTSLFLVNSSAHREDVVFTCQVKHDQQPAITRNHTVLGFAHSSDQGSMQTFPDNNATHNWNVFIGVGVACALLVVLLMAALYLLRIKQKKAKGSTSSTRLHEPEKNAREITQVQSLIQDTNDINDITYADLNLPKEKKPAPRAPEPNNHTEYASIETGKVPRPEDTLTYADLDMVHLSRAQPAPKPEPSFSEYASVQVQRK

T2: mouse SIRPβ1 on CHO cells (mouse)
T2 construct: Whole entry
T2 chain: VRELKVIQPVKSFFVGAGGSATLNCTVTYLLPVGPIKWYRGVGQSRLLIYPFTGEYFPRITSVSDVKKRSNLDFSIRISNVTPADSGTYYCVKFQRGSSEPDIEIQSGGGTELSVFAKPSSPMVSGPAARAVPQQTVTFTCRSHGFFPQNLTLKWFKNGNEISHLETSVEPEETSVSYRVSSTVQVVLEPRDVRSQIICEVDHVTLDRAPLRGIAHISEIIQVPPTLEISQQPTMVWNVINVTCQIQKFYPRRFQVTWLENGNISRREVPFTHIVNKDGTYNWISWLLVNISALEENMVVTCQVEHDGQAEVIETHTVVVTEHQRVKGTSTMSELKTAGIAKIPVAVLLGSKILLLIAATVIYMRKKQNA

T3: mouse SIRPα D1-Fc (mouse, UniProt P97797 32-150, limits assumed)
T3 construct: domain: D1
T3 sequence (looked up): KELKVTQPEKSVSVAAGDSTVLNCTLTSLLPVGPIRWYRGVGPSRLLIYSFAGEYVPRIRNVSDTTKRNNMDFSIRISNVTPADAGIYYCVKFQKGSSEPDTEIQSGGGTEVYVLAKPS


Columns and labels:
[1] = target: T4, human SIRPβ1 domain 1 (D1) Fc fusion (human, UniProt O00241 30-148); experiment: Octet, Fab monovalent
T4 construct: Made in HEK293/T cells with a heterologous signal peptide; also called Human SIRPβ1 D1-Fc; Human SIRPβ1-Fc; not shown: C-terminal human IgG1 Fc

mouse SIRPα on cells [2] = target: T1, mouse SIRPα on cells; experiment: flow cytometry;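 as to FOB: antibodies tested at 1 µg/ml for 30 min on ice against receptor-expressing cells, detected with a PE-labelled secondary antibody, read as mean fluorescence intensity relative to background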
Protocol: (§1) Initial characterization of anti-SIRPβ1 antibodies involved determining their ability to bind cell lines expressing human or mouse SIRPβ1. Cells were harvested, plated at 10⁶/ml in a 96-well plate, washed, and incubated in 100 μl FACS buffer containing 1 μg/ml anti-SIRPβ1 antibody for 0.5 hour on ice. Cells were then washed twice and incubated in 100 μl FACS buffer containing 0.5 μg/ml PE-conjugated secondary antibody for 30 minutes on ice. Cells were washed twice in cold FACS buffer and acquired on a BD FACS Canto. Data analysis and calculation of mean fluorescence intensity (MFI) values or 00 positive cells was performed with FlowJo (TreeStar) software version 10.0.7.
(§2) As a negative control, the anti-SIRPβ1 antibodies were also screened for surface binding to CHO cells overexpressing recombinant mouse SIRPβ31. […] Given the high sequence similarity between receptors of the SIRPβ family, anti-SIRPβ1 antibodies were also screened for cross-reactivity to human and mouse SIRPα.

[3] = target: T2, mouse SIRPβ1 on CHO cells; experiment: flow cytometry;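 as to FOB: antibodies tested at 1 µg/ml for 30 min on ice against receptor-expressing cells, detected with a PE-labelled secondary antibody, read as mean fluorescence intensity relative to background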
Protocol: as §1, §2

human SIRPα on cells [4] = target: T5, human SIRPα on cells (human, UniProt P78324 31-504); experiment: flow cytometry;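 as to FOB: antibodies tested at 1 µg/ml for 30 min on ice against receptor-expressing cells, detected with a PE-labelled secondary antibody, read as mean fluorescence intensity relative to background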
T5 construct: Whole entry
Protocol: as §1, §2

[5] = target: T6, human SIRPβ1 isoform 1 on cells (human, UniProt O00241 30-398); experiment: flow cytometry;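 also: antibodies tested at 1 µg/ml for 30 min on ice against receptor-expressing cells, detected with a PE-labelled secondary antibody, read as mean fluorescence intensity relative to background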
T6 construct: On CHO cells (low level), on BWZ/BW5147.G.1.4 cells (reporter cells co-express human DAP12) or on primary human myeloid cells; also called huSIRPβ1; BWZ-huSIRPβ1
Protocol: as §1, §2

mouse SIRPα on cells [6] = target: T1, mouse SIRPα on cells; experiment: flow cytometry; remark: listed apart in the source
[7] = target: T2, mouse SIRPβ1 on CHO cells; experiment: flow cytometry
human SIRPα on cells [8] = target: T5, human SIRPα on cells; experiment: flow cytometry; remark: listed apart in the source
[9] = target: T4, human SIRPβ1 domain 1 (D1) Fc fusion; experiment: Octet, IgG avid
Protocol: Briefly, Octet affinity measurements were performed by loading IgGs on-line onto AHQ sensors. Sensors were equilibrated off-line in assay buffer for 30 min and then monitored on-line for 60 seconds for baseline establishment. For avid binding measurement, sensors with loaded IgGs were exposed to 100 nM antigen (human SIRPα domain 1 (D1) Fc fusion or SIRPβ1 domain 1 (D1) Fc fusion) for 3 min, and then transferred to assay buffer for 3 min for off-rate measurement. Additional avid binding was determined by loading biotinylated SIRPβ1 monomer on SA sensors and exposing to 100 nM IgG in solution. Monovalent binding measurements were obtained by loading human SIRPα- or SIRPβ1-Fc fusion antigens onto AHQ sensor, followed by exposure to 100 nM anti-SIRPβ1 antibody Fab. Additional monovalent measurements were made by loading biotinylated human SIRPα or SIRPβ1 monomer to SA sensor followed by exposure to 100 nM Fab in solution. Kinetics data were fit using a 1:1 binding model in the data analysis software provided by ForteBio (ForteBio Data Analysis Software 7.0).

mouse SIRPα D1-Fc = target: T3, mouse SIRPα D1-Fc; experiment: Octet
[10] = target: T7, human SIRPα domain 1 (D1) Fc fusion (human, UniProt P78324 32-149); experiment: Octet
T7 construct: also called human SIRPα D1-Fc; Human SIRPα Fc; not shown: C-terminal human IgG1 Fc

T4 sequence (O00241 30-148 limits assumed): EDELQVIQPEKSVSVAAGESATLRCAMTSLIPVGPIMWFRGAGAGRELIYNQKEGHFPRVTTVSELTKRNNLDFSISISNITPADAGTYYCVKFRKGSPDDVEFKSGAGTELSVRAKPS
T6 sequence (O00241 30-398): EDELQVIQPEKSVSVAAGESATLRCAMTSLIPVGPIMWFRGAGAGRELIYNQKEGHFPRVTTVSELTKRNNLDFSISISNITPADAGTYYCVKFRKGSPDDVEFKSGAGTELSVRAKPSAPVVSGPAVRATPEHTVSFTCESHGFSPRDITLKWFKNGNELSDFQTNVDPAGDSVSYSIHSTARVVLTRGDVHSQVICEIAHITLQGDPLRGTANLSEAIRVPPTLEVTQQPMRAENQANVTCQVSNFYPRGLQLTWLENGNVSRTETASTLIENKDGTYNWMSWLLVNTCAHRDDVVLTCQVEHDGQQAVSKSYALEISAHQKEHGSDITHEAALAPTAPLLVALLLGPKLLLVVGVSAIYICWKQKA

Binder | Kd [1] | also measured
SB-48 (antibody, V domains shown, IgG) VH: QVQLVESGGGVVQPGRSLRLSCAASGFTFSSYGMHWVRQAPGKGLEWVAVISYDGSNKYYADSVKGRFTISRDNSKNTLYLQMNSLRAEDTAVYYCARDGTIAAAGWPPEYFQHWGQGTLVTVSS VL: DIQMTQSPSSVSASVGDRVTITCRASQGIDSWLAWYQQKPGKAPKLLIYAASSLQSGVPSRFSGSGSGTDFTLTISSLQPEDFATYYCQQASNFPITFGGGTKVEIK |  | FOB (mouse SIRPα on cells [2]): 2.4 fold over background; FOB [3]: 1.1 fold over background; FOB (human SIRPα on cells [4]): 2.1 fold over background; FOB [5]: 1.7 fold over background; binding result (mouse SIRPα on cells [6]): no binding (tested: 1 ug/ml); binding result [7]: no binding (tested: 1 ug/ml); binding result (human SIRPα on cells [8]): no binding (tested: 1 ug/ml); Kd [9]: 27.7 nM; binding result (mouse SIRPα D1-Fc): no binding (tested: 100 nM); binding result [10]: no binding (tested: 100 nM)
SB-1-2 Fab (Fab, V domains shown, Fab by papain digestion) VH: QVQLVESGGGVVQPGRSLRLSCAASGFTFGSFGMNWVRQAPGKGLEWVSAITASGGSTFYADSVKGRFTISRDNSKNTLYLQMNSLRAEDTAVYYCAKDFTEVVGWLGMDVWGQGTTVTVSS VL: EIVMTQSPGTLSLSPGERATLSCRASQSVSSSYLAWYQQKPGQAPRLLIYGASSRATGIPDRFSGSGSGTDFTLTISRLEPEDFAVYYCQLLGSSPRTFGGGTKVEIK | 37.8 nM | 
SB-2-7 Fab (Fab, V domains shown, Fab by papain digestion) VH: EVQLLESGGGLVQPGGSLRLSCAASGFTFARYGMHWVRQAPGKGLEWVSAISGLAGPTYADSVKGRFTISRDNSKNTLYLQMNSLRAEDTAVYYCARDQTAAAAIWGMDVWGQGTTVTVSS VL: EVVLTQSPGTLSLSPGERATLSCRASQSVSSSYLAWYQQKPGQAPRLLIYGASSRATGIPDRFSGSGSGTDFTLTISRLEPEDFAVYYCQQSSSHPFTFGGGTKVEIK | 6.21 nM | 
SB-1-3 Fab (Fab, V domains shown, Fab by papain digestion) VH: EVQLVESGGGLVKPGGSLRLSCAASGFTFSAYGMNWVRQAPGKGLEWVSAITSSGRSTYYADSVKGRFTISRDNSKNTLYLQMNSLRAEDTAVYYCAKDFTEVVGWLGMDVWGQGTTVTVSS VL: EIVMTQSPGTLSLSPGERATLSCRASQSVSSSYLAWYQQKPGQAPRLLIYGASSRATGIPDRFSGSGSGTDFTLTISRLEPEDFAVYYCQLLGSSPRTFGGGTKVEIK | 45.4 nM | 
SB-2-8 Fab (Fab, V domains shown, Fab by papain digestion) VH: QVQLVESGGGVVQPGRSLRLSCAASGFTFLDYGMHWVRQAPGKGLEWVSAISAFAGSTYADSVKGRFTISRDNSKNTLYLQMNSLRAEDTAVYYCARDQTAAAAIWGMDVWGQGTTVTVSS VL: EVVLTQSPGTLSLSPGERATLSCRASQSVSSSYLAWYQQKPGQAPRLLIYGASSRATGIPDRFSGSGSGTDFTLTISRLEPEDFAVYYCQQSSSHPFTFGGGTKVEIK | 5.02 nM | 
SB-1-4 Fab (Fab, V domains shown, Fab by papain digestion) VH: QVQLVESGGGVVQPGGSLRLSCAASGFTFSAYGMNWVRQAPGKGLEWVSAIRASGGATYYADSVKGRFTISRDNSKNTLYLQMNSLRAEDTAVYYCAKDFTEVVGWLGMDVWGQGTTVTVSS VL: EIVMTQSPGTLSLSPGERATLSCRASQSVSSSYLAWYQQKPGQAPRLLIYGASSRATGIPDRFSGSGSGTDFTLTISRLEPEDFAVYYCQLLGSSPRTFGGGTKVEIK | 43.3 nM | 
SB-1-5 Fab (Fab, V domains shown, Fab by papain digestion) VH: QVQLVESGGGVVQPGRSLRLSCAASGFTFSAYGMNWVRQAPGKGLEWVSAISASGRSTFYADSVKGRFTISRDNSKNTLYLQMNSLRAEDTAVYYCAKDFTEVVGWLGMDVWGQGTTVTVSS VL: EIVMTQSPGTLSLSPGERATLSCRASQSVSSSYLAWYQQKPGQAPRLLIYGASSRATGIPDRFSGSGSGTDFTLTISRLEPEDFAVYYCQLLGSSPRTFGGGTKVEIK | 82.4 nM | 
SB-2-9 Fab (Fab, V domains shown, Fab by papain digestion) VH: QVQLVESGGGVVQPGRSLRLSCAASGFTFKTYGMHWVRQAPGKGLEWVAHIWYEGSNKVYADSVKGRFTISRDNSKNTLYLQMNSLRAEDTAVYYCARDQTAAAAIWGMDVWGQGTTVTVSS VL: EVVLTQSPGTLSLSPGERATLSCRASQSVSSSYLAWYQQKPGQAPRLLIYGASSRATGIPDRFSGSGSGTDFTLTISRLEPEDFAVYYCQQSSSHPFTFGGGTKVEIK | 19.2 nM | 

Now from value to binder, other results behind:

Kd [1] | Binder | also measured
18.1 nM | SB-40-18 Fab (Fab, V domains shown, Fab by papain digestion) VH: QVQLVQSGAEVKKPGASVKVSCKASGYTFTSYYMAWVRQAPGQRLEWMGWINPAVGATIYSQKFQGRVTITRDTSASTAYMELSSLRSEDTAVYYCARDTGEYSYSPHGMDVWGQGTTVTVSS VL: EIVLTQSPATLSLSPGERATLSCRASQSVSSYLAWYQQKPGQAPRLLIYDSSNRATGIPARFSGSGSGTDFTLTISSLEPEDFAVYYCQQRDEHPPWTFGGGTKVEIK | 
44.8 nM | SB-40-19 Fab (Fab, V domains shown, Fab by papain digestion) VH: QVQLVQSGAEVKKPGASVKVSCKASGYTFTSYYMVWVRQAPGQGLEWMGIINPSSGATNYAQKFQGRVTMTTDTSTSTAYMELRSLRSDDTAVYYCARDTGEYSYSPHGMDVWGQGTTVTVSS VL: EIVLTQSPATLSLSPGERATLSCRASQSVSSYLAWYQQKPGQAPRLLIYDSSNRATGIPARFSGSGSGTDFTLTISSLEPEDFAVYYCQQRDEHPPWTFGGGTKVEIK | 
9.41 nM | SB-40-20 Fab (Fab, V domains shown, Fab by papain digestion) VH: QVQLVQSGAEVKKPGASVKVSCKASGYTFTSFYISWVRQAPGQGLEWMGIINPSSGHTNYAQKLQGRVTMTTDTSTSTAYMELSSLRSEDTAVYYCARDTGEYSYSPHGMDVWGQGTTVTVSS VL: EIVLTQSPATLSLSPGERATLSCRASQSVSSYLAWYQQKPGQAPRLLIYDSSNRATGIPARFSGSGSGTDFTLTISSLEPEDFAVYYCQQRDEHPPWTFGGGTKVEIK | 
40.4 nM | SB-40-21 Fab (Fab, V domains shown, Fab by papain digestion) VH: QVQLVQSGAEVKKPGASVKVSCKASGYTFTSYYMVWVRQAPGQGLEWMGIINPSSGDTNYAQKFQGRVTMTRDTSISTAYMELSRLRSDDTAVYYCARDTGEYSYSPHGMDVWGQGTTVTVSS VL: EIVLTQSPATLSLSPGERATLSCRASQSVSSYLAWYQQKPGQAPRLLIYDSSNRATGIPARFSGSGSGTDFTLTISSLEPEDFAVYYCQQRDEHPPWTFGGGTKVEIK | 
12.3 nM | SB-2-10 Fab (Fab, V domains shown, Fab by papain digestion) VH: EVQLLESGGGLVQPGGSLRLSCAASGFTFGSYGMHWVRQAPGKGLEWVSAISGLAGQTYADSVKGRFTISRDNSKNTLYLQMNSLRAEDTAVYYCARDQTAAAAIWGMDVWGQGTTVTVSS VL: EIVLTQSPGTLSLSPGERATLSCRASQSVSSSYLAWYQQKPGQAPRLLIYGASSRATGIPDRFSGSGSGTDFTLTISRLEPEDFAVYYCQQSSSHPFTFGGGTKVEIK | 
4.4 nM | SB-2-11 Fab (Fab, V domains shown, Fab by papain digestion) VH: QVQLVESGGGLVQPGGSLRLSCAASGFTFARYGMHWVRQAPGKGLEWVSAISGLAGPTYADSVKGRFTISRDNSKNTLYLQMNSLRAEDTAVYYCARDQTAAWGIWGMDVWGQGTTVTVSS VL: EIVLTQSPGTLSLSPGERATLSCRASQSVSSSYLAWYQQKPGQAPRLLIYGASSRATGIPDRFSGSGSGTDFTLTISRLEPEDFAVYYCQQSSSHPFTFGGGTKVEIK | 
